From PMC13393422, “Cross-regulation of amino acid synthesis and anaerobic electron transfer by MetR-mediated methionine signaling”

Legend:
MetR (C-his-MetR) [1] = target: T1, MetR (C-his-MetR) (Shewanella oneidensis MR-1, UniProt Q8EIM1 1-301); experiment: EMSA; 4 mM hCys; 500 ng MetR; 50 mM Tris-HCl pH 8.0, 0.5 mM EDTA, 2 mM MgSO4, 1 mM DTT, 100 ug/mL BSA, 10 ug/mL poly(dI-dC), 4 mM hCys, 20% glycerol, 1 nM Cy3 probe, 20 uL; 20 C 10 min; gel; conditions: protein: recombinant, tags: C-terminal His tag (pET-26b(+), NdeI/XhoI), chain copies: 4, label: 5'-Cy3 on strand 2
T1 sequence: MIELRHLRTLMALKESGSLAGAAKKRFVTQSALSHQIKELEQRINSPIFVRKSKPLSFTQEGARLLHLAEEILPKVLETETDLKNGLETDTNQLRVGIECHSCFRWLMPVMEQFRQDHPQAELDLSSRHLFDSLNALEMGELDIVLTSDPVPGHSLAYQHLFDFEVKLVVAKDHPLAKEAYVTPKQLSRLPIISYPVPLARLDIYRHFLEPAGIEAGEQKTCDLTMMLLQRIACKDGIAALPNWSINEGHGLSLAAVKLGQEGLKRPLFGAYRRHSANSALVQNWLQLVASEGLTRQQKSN

MetR (C-his-MetR) [2] = target: T1, MetR (C-his-MetR); experiment: EMSA; 4 mM hCys; 0-250 ng MetR (4B), 500 ng (4C); 50 mM Tris-HCl pH 8.0, 0.5 mM EDTA, 2 mM MgSO4, 1 mM DTT, 100 ug/mL BSA, 10 ug/mL poly(dI-dC), 4 mM hCys, 20% glycerol, 1 nM Cy3 probe, 20 uL; 20 C 10 min; gel; conditions: protein: recombinant; tags: C-terminal His tag (pET-26b(+), NdeI/XhoI); chain copies: 4; label: 5'-Cy3 on strand 2; blunt
MetR (C-his-MetR) [3] = target: T1, MetR (C-his-MetR); experiment: competition; 4 mM hCys; 5,000-fold excess over labeled omcA probe, shift disappeared; 50 mM Tris-HCl pH 8.0, 0.5 mM EDTA, 2 mM MgSO4, 1 mM DTT, 100 ug/mL BSA, 10 ug/mL poly(dI-dC), 4 mM hCys, 20% glycerol, 1 nM Cy3 probe, 20 uL; 20 C 10 min; gel; conditions: protein: recombinant; tags: C-terminal His tag (pET-26b(+), NdeI/XhoI); chain copies: 4; label: none; blunt

B1: glyA probe (dsDNA)
DNA 1: CTCAACTCGGCATTGAGGTGCATTCAAGTTAAAACTGTAG
DNA 2: CTACAGTTTTAACTTGAATGCACCTCAATGCCGAGTTGAG
- binding result (MetR (C-his-MetR) [1]; blunt): binds

B2: metR probe (dsDNA)
DNA 1: GATTTCAAGCGCAACATGAGCGAAATTCACTTGGAGTGATC
DNA 2: GATCACTCCAAGTGAATTTCGCTCATGTTGCGCTTGAAATC
- binding result (MetR (C-his-MetR) [1]; blunt): binds

B3: cymA probe (dsDNA)
DNA 1: GTATTAGCTGGAGTTGAAGTACTCTAACGCTCTGCTAAGC
DNA 2: GCTTAGCAGAGCGTTAGAGTACTTCAACTCCAGCTAATA
- binding result (MetR (C-his-MetR) [1]; 5' overhang 1 nt on strand 1 as printed (strand 2 is 39 nt; text says 40 bp)): binds

B4: luxS probe (dsDNA)
DNA 1: GCATCTGACTGATATGAGATGATTTCATCTTAAGTTATC
DNA 2: GATAACTTAAGATGAAATCATCTCATATCAGTCAGATGC
- binding result (MetR (C-his-MetR) [1]; blunt): binds

B5: omcA probe (dsDNA)
DNA 1: CCACACATTAAATACGACTAATGAGATTTGTTCTTATTTG
DNA 2: CAAATAAGAACAAATCTCATTAGTCGTATTTAATGTGTGG
- binding result (MetR (C-his-MetR) [2]): binds

B6: omcA probe, unlabeled competitor (dsDNA)
DNA 1: CCACACATTAAATACGACTAATGAGATTTGTTCTTATTTG
DNA 2: CAAATAAGAACAAATCTCATTAGTCGTATTTAATGTGTGG
- binding result (MetR (C-his-MetR) [3]): binds

B7: dmsE probe (dsDNA)
DNA 1: CTTATGGTGTTTTTGAGAATGATTTTCTTTTATTTGATTTC
DNA 2: GAAATCAAATAAAAGAAAATCATTCTCAAAAACACCATAAG
- binding result (MetR (C-his-MetR) [1]; blunt): binds

B8: omcA-m probe (dsDNA)
DNA 1: CCACACATTAAATACGACTAAGGGGATTTGGGGGTATTTG
DNA 2: CAAATACCCCCAAATCCCCTTAGTCGTATTTAATGTGTGG
- binding result (MetR (C-his-MetR) [1]; blunt): no binding
